Among the data in patent publication US20020160482A1, “Methods for protein purification” (priority 2001, published 2002) are inhibition and specific activity values, retold here.

Series [1] addresses T1, purified SSAO protein (recombinant human SSAO) (Homo sapiens, UniProt Q16853).
T1 construct: residues 29-763 of the human SSAO protein cloned from human aorta cDNA; mutated S. japonicum GST (Cys85/138/178 to Ser) with SQSQ spacer and 3C protease site EALFQG (N, cleaved yes); murine IgG1 heavy chain signal peptide (mutated), followed by an 18 amino acid spacer (N, cleaved yes); made in house; host or cells: HEK293 cells stably transfected with pMB887, protein secreted into the medium
T1 sequence (Q16853 29-763): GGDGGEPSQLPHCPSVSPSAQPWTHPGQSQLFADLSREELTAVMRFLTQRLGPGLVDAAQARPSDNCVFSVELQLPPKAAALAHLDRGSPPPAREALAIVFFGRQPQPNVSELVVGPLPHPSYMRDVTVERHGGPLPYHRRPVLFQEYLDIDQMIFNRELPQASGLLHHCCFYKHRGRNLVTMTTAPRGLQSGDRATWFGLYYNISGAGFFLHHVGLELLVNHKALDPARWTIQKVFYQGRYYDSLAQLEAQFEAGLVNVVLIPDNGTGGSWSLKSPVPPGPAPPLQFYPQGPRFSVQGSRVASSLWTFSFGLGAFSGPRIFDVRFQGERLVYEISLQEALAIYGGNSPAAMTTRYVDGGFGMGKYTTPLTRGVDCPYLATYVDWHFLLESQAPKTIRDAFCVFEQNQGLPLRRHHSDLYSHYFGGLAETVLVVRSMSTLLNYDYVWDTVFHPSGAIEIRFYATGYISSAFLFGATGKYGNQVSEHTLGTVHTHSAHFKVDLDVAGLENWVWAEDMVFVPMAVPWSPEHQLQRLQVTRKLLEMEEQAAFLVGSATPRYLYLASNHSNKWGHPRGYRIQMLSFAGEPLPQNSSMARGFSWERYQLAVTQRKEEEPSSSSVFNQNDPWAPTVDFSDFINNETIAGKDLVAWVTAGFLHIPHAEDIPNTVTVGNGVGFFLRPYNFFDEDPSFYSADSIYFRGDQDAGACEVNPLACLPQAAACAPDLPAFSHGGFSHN
The series is described as follows: Semicarbazide inhibition of benzylamine oxidase activity (spectrophotometric amine oxidase assay). The format is biochemical. Conditions: in the presence of 0.1 mM semicarbazide, read-out: benzylamine oxidase activity inhibited. As to the method: A spectrophotometric assay for monoamine oxidases described by Holt and coworkers (Holt et al., 1997) was used to determine amine oxidase activity in samples from the different purification steps. The assay was performed in 96-well microtiter plates incubated at 37° C. in a SPECTRAmax 250 microplate spectrophotometer (Molecular Devices, Sunnyvale, Calif.). The reagent mix containing 1 mM vanillic acid (Sigma, St. Louis, Mo.), 500 μM 4-aminoantipyrine (Sigma), and 4U ml^−1 peroxidase (type VI from horseradish, Sigma) in 0.2 M potassium phosphate buffer (pH 7.6) was prepared on the same day assays were performed and kept at 5° C. until used. Reactions were started by mixing 50 μl sample, 50 μl reagent mix and 200 μl potassium phosphate buffer with or without 750 μM benzylamine hydrochloride (Sigma) and were performed in triplicate. In order to obtain blank reference values, wells were analyzed with buffer added in place of sample. Absorbance changes were followed at 490 nm for 10-40 minutes. Standard curves were prepared with dilutions of a stock solution of H2O2 in potassium phosphate buffer ranging from 10 nmol/well to 120 nmol/well. When inhibition experiments were carried out, the samples were incubated in 300 μM semicarbazide at 37° C. for 30 minutes, before addition of the benzylamine solution. […]

The nature of series [2]: Spectrophotometric amine oxidase assay: specific benzylamine oxidase activity of purified proteins. Type of series: biochemical, human. As to the method: A spectrophotometric assay for monoamine oxidases described by Holt and coworkers (Holt et al., 1997) was used to determine amine oxidase activity in samples from the different purification steps. The assay was performed in 96-well microtiter plates incubated at 37° C. in a SPECTRAmax 250 microplate spectrophotometer (Molecular Devices, Sunnyvale, Calif.). The reagent mix containing 1 mM vanillic acid (Sigma, St. Louis, Mo.), 500 μM 4-aminoantipyrine (Sigma), and 4U ml^−1 peroxidase (type VI from horseradish, Sigma) in 0.2 M potassium phosphate buffer (pH 7.6) was prepared on the same day assays were performed and kept at 5° C. until used. Reactions were started by mixing 50 μl sample, 50 μl reagent mix and 200 μl potassium phosphate buffer with or without 750 μM benzylamine hydrochloride (Sigma) and were performed in triplicate. In order to obtain blank reference values, wells were analyzed with buffer added in place of sample. Absorbance changes were followed at 490 nm for 10-40 minutes. Standard curves were prepared with dilutions of a stock solution of H2O2 in potassium phosphate buffer ranging from 10 nmol/well to 120 nmol/well. When inhibition experiments were carried out, the samples were incubated in 300 μM semicarbazide at 37° C. for 30 minutes, before addition of the benzylamine solution.

With `NNC(N)=O` [semicarbazide], the inhibition at 100 µM in series [1] was over 95%.

B1: SSAO protein: purified soluble recombinant human SSAO (residues 29-763) after removal of the GST fusion partner (protein, listed as Homo sapiens)
chain: T1 sequence (Q16853 29-763)
Consider B1, for which the specific activity is 522 nmol/min/mg in series [2] (after cleavage, flow-through of second glutathione-Sepharose step (cleavage buffer with DTT)); 809 nmol/min/mg in series [2] (after removal of GST fusion partner and diafiltration (final product)); 809 nmol/min/mg in series [2] (per purification step, nmol of H2O2 produced per minute using 0.5 mM benzylamine as substrate, listed as Diafiltrate); 522 nmol/min/mg in series [2] (per purification step, nmol of H2O2 produced per minute using 0.5 mM benzylamine as substrate, listed as GSH-affinity step-2 (flow-through)).
